Results: publication PMC2683335 (The Journal of biological chemistry, 2008)

Legend:
[1] = target: MthMCM R137A mutant (Methanothermobacter thermautotrophicus); assay: negative-stain electron microscopy
[2] = target: MthMCM RR137,160AA double mutant (Methanothermobacter thermautotrophicus); assay: AUC
[3] = target: the molecule itself; assay: SEC + other: sucrose gradient sedimentation
AUC = target: the molecule itself; assay: AUC

MthMCM R137A mutant (natural protein)
stoichiometry N [1]: 14 subunits

MthMCM RR137,160AA double mutant (natural protein)
stoichiometry N [2]: 7 subunits

B1: Methanothermobacter thermautotrophicus MCM (MthMCM), wild type (natural protein, UniProt O27798 1-666, looked up)
chain: MMKTVDKSKTLTKFEEFFSLQDYKDRVFEAIEKYPNVRSIEVDYLDLEMFDPDLADLLIEKPDDVIRAAQQAIRNIDRLRKNVDLNIRFSGISNVIPLRELRSKFIGKFVAVDGIVRKTDEIRPRIVKAVFECRGCMRHHAVTQSTNMITEPSLCSECGGRSFRLLQDESEFLDTQTLKLQEPLENLSGGEQPRQITVVLEDDLVDTLTPGDIVRVTGTLRTVRDERTKRFKNFIYGNYTEFLEQEFEELQISEEDEEKIKELAGDPNIYEKIIRSTAPSIHGYREVKEAIALQLFGGTGKELDDKTRLRGDIHILIVGDPGIGKSQMLKYVSKLAPRGIYTSGKGTSGVGLTAAAVRDEFGGWSLEAGALVLGDKGNVCVDELDKMREEDRSAIHEALEQQTISIAKAGIMATLNSRCSVLAAANPKFGRFDSYKSIAEQIDLPSTILSRFDLIFVVEDKPDEEKDRELARHILKTHKEDHMPFEIDPELLRKYIAYARKNVRPVLTDEAMQVLEDFYVSMRASAADEDSPVPITARQLEALVRLSEASAKIKLKEHVEAEDARKAIKLSQACLKQVGYDPETGKIDIDKVEGRTPKSERDKFRLLLELIKEYEDDYGGRAPTNILITEMMDRYNVSEEKVEELIRILKDKGAIFEPARGYLKIV
stoichiometry N [3]: 11.6 monomers | stoichiometry N (AUC): 12.2 subunits/complex
